Data: the RNAGym collection of RNA variant scans (doi:10.1073/pnas.2313332121)

B1: TPR t1 (parent)
chain: GACCAAUCUGCCCUCAGAGCUCGAGAACAUCUUCGGAUGCAGAGGAGGCAGGCUUCGGUGGCGCGAUAGCGCCAACGUCCUCAACCUCCAAUGCAUCCCACCACAUGAUGAUGCCUGAAGAGCCUUGGUUUUUUG

Variants of: B1
Experiment: polymerase ribozyme fitness, log enrichment relative to wild type (log ratio); higher = more active; in vitro selection for triplet polymerase activity
How it was run: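 Both subunits of a heterodimeric triplet polymerase ribozyme were given their own mutant library, built by PCR and transcribed. Each library was annealed with a biotinylated primer, the partner subunit and triplets, incubated frozen at −7 °C, and its extended constructs gel-excised, captured on streptavidin beads and amplified by RT-PCR, all in one round done in triplicate. Fitness is the logarithm of genotype enrichment relative to wild-type enrichment, with replicates averaged by inverse-variance weighting. That logarithm is base 2, and Illumina-sequenced genotypes needed ≥10 input reads and ≥1 read per output.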

Variant | polymerase ribozyme fitness (log ratio)
G113C A119C | -4.37
G113C A119G | -0.737
G113C C114U C115G C124U | -3.2
G113C G120C | -2.85
G113C G122A C123U | -3.7
G113C U125C | -2.26
G113C U125G | -2.58
G113C U130G | -2.88
G113U | -2.64
G113U A118U | -2.55
G113U A119C G122U | -4.35
G113U G122U | -2.45
G113U U134G | -1.78
C114A | -1.39
C114A A121U | -1.18
C114A C123U | -3.16
C114A C124A | -1.12
C114A U125A | -1.73
C114A U129C | -1.63
C114A U129G U130C | -2.79
C114A U131A | -0.246
C114G | -2.37
C114G C115U | -4.37
C114G G122U | -2.87

Variant | polymerase ribozyme fitness (log ratio)
C114G U133A | -2.37
C114U | -1.7
C114U G120A C123U | -1.64
C114U U116A | -5.58
C114U U125A | -3.07
C114U U133A | -1.63
C115A G128U U133A | -3.05
C115A U129A U131C | -0.649
C115A U129C | -2.62
C115A U132A | 0.0612
C115G G120A | -1.35
C115U A118U U130G | -1.69
C115U A119U U130G | -1.35
C115U C123G | -0.112
C115U G120A | -2.24
C115U G120A A121C | -2.04
C115U G128U | -4.06
C115U U129G | -2.15
U116A C124A | 0.141
U116C G117U | -1.01
U116C U131G | -1.05
U116C U133A | -0.508
U116G C123A | -3.25
U116G C124A | 0.803

Variant | polymerase ribozyme fitness (log ratio)
U116G U125A U133A | -4.19
G117A U130G | -1.63
G117C A119U | -2.92
G117C A121G | -2.23
G117C G120U | -4.51
G117C G120U U131G | -4.67
G117C G128A | -5.33
G117C U126G | -3.22
G117C U131C | -3.27
G117U A119U | -3.92
G117U G127U | -4.77
G117U G135U | -1.25
G117U U129G | -4.23
G117U U130C | -2.04
G117U U131G | -4.64
G117U U133A | -3.13
A118U G120A | -0.267
A119C A121U | -1.38
G120A C123U | 1.96
G120A G135C | 0.457
G120A U130C | 0.856
G120A U130G | 0.245
G120C A121U | 2.44
G120C C124U | 1.74

Variant | polymerase ribozyme fitness (log ratio)
G120C G127A | 0.0309
G120C G127C | -0.522
G120C U129A | -1.15
G120C U133A | 1.48
G120U C123A | -0.201
G120U C124U | 1.38
G120U G127C | -0.262
G120U G127U | 1.64
G120U U132A | 0.126
A121C C123U | 0.54
A121C G122A | 1.31
A121C G127A G128U | -0.559
A121C U126A | 0.358
A121C U129A | -1.04
A121C U133A | -0.797
A121G G128A | 0.956
A121G U125A | 2.32
A121U C123G | 1.92
A121U C124U | 2.15
A121U U133A | 1.83
G122A C123A | -0.665
G122A U133G | -0.871
C123A G128C | -0.87
C123G G135U | 1.4

Variant | polymerase ribozyme fitness (log ratio)
C123G U126G | -0.0102
C123G U130G | 1.48
C123U U129A | 0.307
C124A G127C | 0.796
C124A U131A | 1.79
C124A U134G | 3.41
C124G G128C | -0.216
C124G U126A | 1.15
C124U U125A | 0.926
U125G U132C | -0.45
U126A U130A | -3.19
G127A G135U | -2.16
G127A U129G | -1.62
G127C U129C | -2.22
G128A U131A | -2.44
G128U U129C | -0.805
U129C G135C | 0.513
U129C G135U | -0.0345
U130A | -0.523
U130C | 0.0585
U130G | -0.361
